Laboratory results: paper PMC4574351, “Tubulin cofactors and Arl2 are cage-like chaperones that regulate the soluble αβ-tubulin pool for microtubule dynamics” (eLife, 2015)

Molecular target: T1, Tubulin cofactor D (TBCD), S. cerevisiae Cin1p (S. cerevisiae, UniProt P40987 1-1014)
T1 construct: Tubulin cofactor D ortholog Cin1p, S. cerevisiae, full-length cDNA; TBCD is insoluble when expressed alone; also called Yeast TBCD (cin1p); His-TBCD; source: E. coli, co-expressed with TBCE and Arl2 from polycistronic vectors; co-purified as TBC-DEG (Ni-NTA, HiTrap SP, Superdex 200); not shown: 6xHis, N-terminal, kept
T1 sequence (looked up): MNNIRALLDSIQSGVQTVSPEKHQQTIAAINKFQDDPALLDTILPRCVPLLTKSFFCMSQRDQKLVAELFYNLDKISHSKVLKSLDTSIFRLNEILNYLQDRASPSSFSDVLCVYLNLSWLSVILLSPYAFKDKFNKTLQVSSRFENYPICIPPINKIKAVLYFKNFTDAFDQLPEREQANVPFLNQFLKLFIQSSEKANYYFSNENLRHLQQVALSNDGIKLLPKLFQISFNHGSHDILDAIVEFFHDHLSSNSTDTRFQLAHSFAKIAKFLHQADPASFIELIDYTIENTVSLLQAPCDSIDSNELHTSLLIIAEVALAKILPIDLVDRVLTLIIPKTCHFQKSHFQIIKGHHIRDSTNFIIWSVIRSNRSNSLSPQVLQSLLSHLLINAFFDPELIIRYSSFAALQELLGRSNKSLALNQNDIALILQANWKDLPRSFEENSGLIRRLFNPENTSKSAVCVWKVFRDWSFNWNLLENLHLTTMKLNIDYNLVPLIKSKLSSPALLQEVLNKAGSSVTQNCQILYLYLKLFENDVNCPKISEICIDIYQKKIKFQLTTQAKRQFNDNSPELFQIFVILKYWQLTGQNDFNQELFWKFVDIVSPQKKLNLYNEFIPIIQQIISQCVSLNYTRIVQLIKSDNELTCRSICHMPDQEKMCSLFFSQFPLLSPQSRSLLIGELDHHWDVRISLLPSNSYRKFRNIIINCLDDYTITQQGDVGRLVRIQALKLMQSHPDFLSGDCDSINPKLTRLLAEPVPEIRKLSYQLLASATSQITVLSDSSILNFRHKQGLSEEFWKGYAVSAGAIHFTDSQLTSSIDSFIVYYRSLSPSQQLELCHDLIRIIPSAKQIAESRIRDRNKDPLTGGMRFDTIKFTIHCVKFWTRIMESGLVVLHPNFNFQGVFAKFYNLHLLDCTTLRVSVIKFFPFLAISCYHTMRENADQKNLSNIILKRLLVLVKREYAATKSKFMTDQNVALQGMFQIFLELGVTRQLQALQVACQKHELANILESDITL
Assay: SEC-MALS; WTC-03S5 column; purified TBC-DEG (subunits co-expressed and co-purified), αβ-tubulin, TBCC and their complexes; ternary complex with GDP·ALFx (wild type) or GTP (Q73L)
Conditions: both partners purified

stoichiometry N: 1
B1: Arl2 GTPase, S. cerevisiae Cin4p (enzyme, UniProt P39110 1-191, looked up)
chain: MGLLSIIRKQKLRDKEIRCLILGLDNSGKSTIVNKLLPKDEQNNDGIMPTVGFQIHSLMIKDVTISLWDIGGQRTLRPFWDNYFDKTQAMIWCIDVSLSMRFDETLQELKELINRDENRIGYECAVIVVLNKIDLVEDKSELHRRCLLVESELKCLFKPDIRIELVKCSGVTGEGIDNLRDRLVESCHFTQ
notes: ADP ribosylation factor-like 2 ortholog Cin4p, S. cerevisiae, full-length cDNA; Tags were not tolerated on either end of Arl2; Insoluble when expressed alone; also called Yeast Arl2 (cin4p); source: E. coli, co-expressed with TBCD and TBCE from polycistronic vectors; co-purified as TBC-DEG (Ni-NTA, HiTrap SP, Superdex 200)
